In patent US20230165970A1, “COMPOSITIONS AND METHODS FOR THE TREATMENT OF BACTERIAL INFECTIONS” (priority 2017, published 2023):

Tests used:
Assay in all cases: MIC assay (broth microdilution, RPMI + 5% LB)
Type in all cases: cell-based
Escherichia coli BW25113 = conditions: assay media RPMI A; for MIC Ec BW + FBS: 50% heat-inactivated FBS
[1] = test system: Escherichia coli ATCC 25922; conditions: assay media RPMI A; for MIC Ec 25922 + FBS: 50% heat-inactivated FBS
[2] = test system: Escherichia coli BW25113 4X-12 (COL-R; PmrB-Leu10Pro); conditions: assay media RPMI A
Method: (§1) Bacterial strains were stored as glycerol stocks at −80° C. prior to culturing on cation-adjusted Mueller-Hinton agar (MHA; BD cat. no. 211438) at 37° C. Antibacterial activity was assessed against a panel consisting of Escherichia coli, Acinetobacter baumannii, Pseudomonas aeruginosa, and Klebsiella pneumoniae strains (see Table 2).
(§2) Briefly, stock solutions of all antibacterial agents were prepared fresh in appropriate solvents (i.e. PBS, pH 7.4. DMSO, DI, etc.). Stock concentrations were made at 50× the highest final assay concentration and serially diluted 2-fold, 8 or 12 times in a 96-well PCR plate (VWR cat. no. 83007-374). Bacterial cell suspensions generated from MHA plate cultures were prepared in 0.85% saline and adjusted to ˜0.1 OD600 nm. Next, cell suspensions were diluted 1:200 in RPMI containing 5% Luria Broth (LB) to improve bacterial growth (BD Difco, cat. no. 244620) to a concentration of ˜5×10^5 CFU (colony-forming units)/mL. […] Later, conjugates 16 and 17, and 20-25 were evaluated in RPMI 1640 medium (+) L-glutamine, (+) sodium bicarbonate, pH 7.4 (“RPMI B”; Gibco, cat. no. 11875-085) as has been described as a more physiologically-relevant media for susceptibility testing of antibacterial compounds. Dorschner R A et al., The mammalian ionic environment dictates microbial susceptibility to antimicrobial defense peptides. FASEB J. 20(1):35-42 […]. Ninety-eight microliters of each cell suspension in MHB were added to test wells in a 96-well assay plate (Costar cat. no. 3370). A Beckman Multimek 96 liquid handling robot was used to dispense 2 μL of each 50× stock compound into the plate containing 98 μL of each strain in MHB (2% final solvent concentration). E. coli strains BW25113 and ATCC 25922 were run in the presence and absence of 50% heat-inactivated fetal bovine serum (FBS; Sigma, cat. no. F4135-100 mL). Plates were mixed by shaking then incubated at 37° C. overnight (16-20 h).

[3] = test system: Pseudomonas aeruginosa PAO1; conditions: assay media RPMI A
Method: as §1, §2

[4] = test system: Escherichia coli BW25113 + pUC18-mcr-1; conditions: assay media RPMI A
From the text: An mcr-1 expression plasmid was constructed (GenScript; Piscataway, N.J.) using the pUC18 high copy number plasmid (Yanisch-Perron, et al., 1985). A 1649-bp fragment was synthesized containing, in order from 5′ to 3′: EcoR1 restriction site (5′-GAATTC-3), a ribosomal binding site (5′-AGGAGG-3′), a 5-bp native start codon upstream sequence (5′-TTCTC-3′) from the mcr-1-bearing plasmid pHNSHP45 (Liu, Y Y, et al., 2015; GenBank Accession #KP347127), the 1626-bp mcr-1 open reading frame with stop codon (“orf00073” of GenBank Accession #KP347127), and finally an Xba1 restriction site sequence (5′-TCTAGA-3′). […] The pUC18-mcr-1 plasmid was transformed into chemically-competent E. coli BW25113 (Coli Genetic Stock Center #7636) as described previously (Chung, et al., PNAS. 1989), recovered for 1 h shaking at 37° C. in Super Optimal broth with Catabolite repression (SOC) media and then aliquots were plated on Luria-Bertani (LB) media containing 100 μg/mL of carbenicillin. Putative transformant colonies were then verified in MIC assays.
as §1
Briefly, stock solutions of all antibacterial agents were prepared fresh in appropriate solvents (i.e. PBS, pH 7.4. DMSO, DI, etc.). Stock concentrations were made at 50× the highest final assay concentration and serially diluted 2-fold, 8 or 12 times in a 96-well PCR plate (VWR cat. no. 83007-374). Bacterial cell suspensions generated from MHA plate cultures were prepared in 0.85% saline and adjusted to ˜0.1 OD600 nm. […] Later, conjugates 16 and 17, and 20-25 were evaluated in RPMI 1640 medium (+) L-glutamine, (+) sodium bicarbonate, pH 7.4 (“RPMI B”; Gibco, cat. no. 11875-085) as has been described as a more physiologically-relevant media for susceptibility testing of antibacterial compounds. […]

[5] = test system: Escherichia coli ATCC BAA-2469; conditions: assay media RPMI A
Method: as §1
(§3) Briefly, stock solutions of all antibacterial agents were prepared fresh in appropriate solvents (i.e. PBS, pH 7.4. DMSO, DI, etc.). Stock concentrations were made at 50× the highest final assay concentration and serially diluted 2-fold, 8 or 12 times in a 96-well PCR plate (VWR cat. no. 83007-374). Bacterial cell suspensions generated from MHA plate cultures were prepared in 0.85% saline and adjusted to ˜0.1 OD600 nm. […] Dorschner R A et al., The mammalian ionic environment dictates microbial susceptibility to antimicrobial defense peptides. FASEB J. 20(1):35-42 (2017). Ninety-eight microliters of each cell suspension in MHB were added to test wells in a 96-well assay plate (Costar cat. no. 3370). A Beckman Multimek 96 liquid handling robot was used to dispense 2 μL of each 50× stock compound into the plate containing 98 μL of each strain in MHB (2% final solvent concentration). E. coli strains BW25113 and ATCC 25922 were run in the presence and absence of 50% heat-inactivated fetal bovine serum (FBS; Sigma, cat. no. F4135-100 mL). Plates were mixed by shaking then incubated at 37° C. overnight (16-20 h).

[6] = test system: Acinetobacter baumannii AB5075; conditions: assay media RPMI A
Method: as §1, §3

[7] = test system: Acinetobacter baumannii ATCC 19606; conditions: assay media RPMI A
Method: as §1, §3

[8] = test system: Acinetobacter baumannii ATCC 17978; conditions: assay media RPMI A
Method: as §1, §2

[9] = test system: Pseudomonas aeruginosa ATCC 27853; conditions: assay media RPMI A
Method: as §1, §2

| Molecule | MIC Ec BW (Escherichia coli BW25113) [µg/mL] | MIC Ec BW + FBS (Escherichia coli BW25113) [µg/mL] | MIC Ec 25922 [1] [µg/mL] | MIC Ec 25922 + FBS [1] [µg/mL] | MIC Ec BW 4X-12 (COL-R) [2] [µg/mL] | MIC Pa PAO1 [3] [µg/mL] | MIC Ec BW (mcr-1) [4] [µg/mL] | MIC Ec 2469 [5] [µg/mL] | MIC Ab AB5075 [6] [µg/mL] | MIC Ab 19606 [7] [µg/mL] | MIC Ab 17978 [8] [µg/mL] | MIC Pa 27853 [9] [µg/mL] |
| --- | --- | --- | --- | --- | --- | --- | --- | --- | --- | --- | --- | --- |
| Conjugate 4 (conjugate, cyclised or stapled) PRGPTIKPCPPCKCPAPNLLGGPSVFIFPPKIKDVLMISLSPIVTCVVVDVSEDDPDVQISWFVNNVEVHTAQTQTHREDYNSTLRVVSALPIQHQDWMSGKEFKCKVNNKDLPAPIERTISKPKGSVRAPQVYVLPPPEEEMTKKQVTLTCMVTDFMPEDIYVEWTNNGKTELNYKNTEPVLDSDGSYFMYSKLRVEKKNWVERNSYSCSVVHEGLHNHHTTKSFSRTPGKHHHHHH | 32 | 32 | >128 | 64 | >128 | 16 | >128 | >128 | 32 | 32 | – | – |
| Conjugate 15 (conjugate, cyclised or stapled) PRGPTIKPCPPCKCPAPNLLGGPSVFIFPPKIKDVLMISLSPIVTCVVVDVSEDDPDVQISWFVNNVEVHTAQTQTHREDYNSTLRVVSALPIQHQDWMSGKEFKCKVNNKDLPAPIERTISKPKGSVRAPQVYVLPPPEEEMTKKQVTLTCMVTDFMPEDIYVEWTNNGKTELNYKNTEPVLDSDGSYFMYSKLRVEKKNWVERNSYSCSVVHEGLHNHHTTKSFSRTPGKHHHHHH | >128 | >128 | >128 | >128 | >128 | 16 | >128 | >128 | >128 | >128 | – | – |
| Conjugate 26: "Conjugate of m-IgG2a(His)6 Fc-3 (Int-13)"; SEQ ID NO: 6, procedure uses Int-10, DAR=2/Fc dimer (conjugate, conjugated small molecule Int-13, DAR 2) PRGPTIKPCPPCKCPAPNLLGGPSVFIFPPKIKDVLMISLSPIVTCVVVDVSEDDPDVQISWFVNNVEVHTAQTQTHREDYNSTLRVVSALPIQHQDWMSGKEFKCKVNNKDLPAPIERTISKPKGSVRAPQVYVLPPPEEEMTKKQVTLTCMVTDFMPEDIYVEWTNNGKTELNYKNTEPVLDSDGSYFMYSKLRVEKKNWVERNSYSCSVVHEGLHNHHTTKSFSRTPGKHHHHHH | 16 | 32 | >128 | 128 | >128 | 64 | >128 | 32 | 32 | 128 | 64 | 16 |
